# Source: article PMC11842843, “Structural basis for malate-driven, pore lipid-regulated activation of the Arabidopsis vacuolar anion channel ALMT9” (Nature Communications, 2025)
# B1: AtALMT9-superfolder GFP (sfGFP)-hemagglutinin (HA) tag-decahistidine (H10) tag (natural protein, Arabidopsis thaliana, UniProt Q9LS46 1-598, looked up)
# chain: MAAKQGSFRHGILEKRERLLSNNGFSDFRFTDIESNDLLENENCGRRTRLCCCCSCGNLSEKISGVYDDAKDVARKAWEMGVSDPRKIVFSAKIGLALTIVALLIFYQEPNPDLSRYSVWAILTVVVVFEFTIGATLSKGFNRALGTLSAGGLALGMAELSTLFGDWEEIFCTLSIFCIGFLATFMKLYPSMKAYEYGFRVFLLTYCYILISGFRTGQFIEVAISRFLLIALGAGVSLGVNMFIYPIWAGEDLHNLVVKNFMNVATSLEGCVNGYLRCLEYERIPSKILTYQASEDPVYKGYRSAVESTSQEESLMSFAIWEPPHGPYKSFNYPWKNYVKLSGALKHCAFTVMALHGCILSEIQAPEERRQVFRQELQRVGVEGAKLLRELGEKVKKMEKLGPVDLLFEVHLAAEELQHKIDKKSYLLVNSECWEIGNRATKESEPQELLSLEDSDPPENHAPPIYAFKSLSEAVLEIPPSWGEKNHREALNHRPTFSKQVSWPARLVLPPHLETTNGASPLVETTKTYESASALSLATFASLLIEFVARLQNVVDAFKELSQKANFKEPEIVTTGTDVEFSGERVGLGQKIRRCFGM
# notes: cloned into modified pACEBac2-sfGFP-HA-H10; No tag cleavage is described; The final models lack the flexible N-terminus, the C-terminus and two long loops (between H1 and H2, and between H5 and H6); also called ALMT9 from Arabidopsis thaliana; source: Sf9 cells (baculovirus), purified (TALON resin, Superdex 200 increase) in LMNG with or without CHS
# Target: the molecule itself
# Assay: cryo-EM structure; purified AtALMT9-sfGFP-HA-H10 in LMNG; three datasets (LMNG + CHS; LMNG + CHS + 10 mM malate; LMNG + 10 mM malate); 20 mM HEPES pH 7.6, 150 mM NaCl, 1 mM TCEP; nine lipid-bound classes
protein,measurement,value
B1,stoichiometry N,2
